In patent publication US20250092134A1 one finds Cell Internalization (EC50) and PBMC binding (%) data, which are given here for two substances.

The target of experiment [1] is Vβ17 (on cells expressing Vβ17). In words: cell-based or functional assay.
The target of experiment [2] is TCR Vβ17 on T cells of PBMCs. Put plainly: flow cytometry on PBMCs, percent of cells stained.
Sequence of TCR Vβ17 on T cells of PBMCs (A0A075B6N1 22-114): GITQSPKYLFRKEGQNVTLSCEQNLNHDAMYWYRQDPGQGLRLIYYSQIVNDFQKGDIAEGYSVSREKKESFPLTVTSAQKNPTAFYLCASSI

Sequence of Vβ17 (on cells expressing Vβ17) (A0A075B6N1 22-114): as above

The substance “Anti TCR Vβ17-PE Ab, Beckman Coulter, Cat: IM2048 (antibody)” yielded a Cell Internalization (EC50) in experiment [1] of under 0.07 nM. Further, in experiment [2], the PBMC binding (%) was 3.4%.
“Goat anti mouse IgG PE, Southern Biotech, Cat: 1030-09 (antibody)” showed a PBMC binding (%) in experiment [2] of 0.13%.
